Data on one molecule can be found in publication PMC3876986, “The Velvet Family of Fungal Regulators Contains a DNA-Binding Domain Structurally Similar to NF-κB”.

What all share (experiment): EMSA; EMSA: 10 mM HEPES/NaOH pH 7.4, 150 mM NaCl, ~53 pmol DNA in 10 ul, RT 15 min; DNA:protein molar ratios 1:0.3 to 1:9; 6% PAGE, 0.5% TBE, ethidium bromide
Conditions in all cases: protein: recombinant; tags: Strep-tag (C-terminal); chain copies: 2; blunt
A general note: Mobility shift assays separate free from complexed probe on a gel.

The target of one data set is T1, VosA1-190 K37A/K39A (Aspergillus nidulans, UniProt Q5BBX1 1-190, K37A;K39A).
T1 sequence: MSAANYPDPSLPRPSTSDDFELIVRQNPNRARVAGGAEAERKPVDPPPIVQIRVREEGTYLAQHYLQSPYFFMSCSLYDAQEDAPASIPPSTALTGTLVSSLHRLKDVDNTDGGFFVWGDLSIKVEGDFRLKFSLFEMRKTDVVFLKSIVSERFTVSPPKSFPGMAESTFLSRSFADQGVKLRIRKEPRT

The next data set concerns the target T2, VosA1-190 dead (Aspergillus nidulans, UniProt Q5BBX1 1-190, K37A;K39A;R41A;K42A).
T2 sequence: T1 sequence with R41A, K42A

Another data set addresses T3, VosA1-190 K160A (Aspergillus nidulans, UniProt Q5BBX1 1-190, K160A).
T3 sequence: T1 sequence with A37K, A39K, K160A

Positions count from the first letter of the chain named.

B1: brlA 35 bp probe (OHS301/302) (dsDNA)
DNA 1: ATTCGGCGACTAGGATCTTACTGGCCGCGGCCGAG
DNA 2: CTCGGCCGCGGCCAGTAAGATCCTAGTCGCCGAAT
In the case of B1, the binding result is “no binding” in the data set with VosA1-190 K37A/K39A, “no binding” with VosA1-190 dead and “binds” in the data set with VosA1-190 K160A.
